The values below come from patent publication US20200369765A1 (INNATE PHARMA, published 2020).

Where a chain is given by its changes, count along the chain named.

One assay has as its target T1, Human Siglec-7 (human, UniProt Q9Y286 19-467).
T1 construct: Expressed on transfected CHO cells; also called huSiglec-7; CD328
As to the kind of experiment: flow cytometry, CHO transfectants. In general terms: Flow cytometry measures light scatter and fluorescence of single cells or particles in a stream.

In another assay the target is T2, Human Siglec-9 mutant M2 (human, UniProt Q9Y336 18-463).
T2 construct: Expressed on HEK293T cells; also called Mutant 2
As to the kind of experiment: flow cytometry, HEK293T transfectants.

In another assay the target is T3, Human Siglec-9 mutant M3 (human, UniProt Q9Y336 18-463).
T3 construct: Expressed on HEK293T cells; also called Mutant 3
T3 sequence (Q9Y336 other isoform, or with tags, fused parts or gaps mutant): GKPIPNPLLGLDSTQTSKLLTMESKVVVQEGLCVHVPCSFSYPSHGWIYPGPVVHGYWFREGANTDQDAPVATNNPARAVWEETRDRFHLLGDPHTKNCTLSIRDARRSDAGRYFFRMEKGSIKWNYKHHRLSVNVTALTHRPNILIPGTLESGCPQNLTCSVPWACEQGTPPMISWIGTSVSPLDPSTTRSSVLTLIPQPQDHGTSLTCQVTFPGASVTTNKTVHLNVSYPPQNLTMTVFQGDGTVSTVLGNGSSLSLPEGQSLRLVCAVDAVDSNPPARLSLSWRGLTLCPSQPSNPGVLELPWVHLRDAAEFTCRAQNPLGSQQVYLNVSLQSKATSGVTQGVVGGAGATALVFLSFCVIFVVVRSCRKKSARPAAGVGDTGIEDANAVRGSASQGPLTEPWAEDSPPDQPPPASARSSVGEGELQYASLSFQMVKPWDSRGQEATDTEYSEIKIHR
In words: flow cytometry, HEK293T transfectants.

The target of a further assay is T4, Human Siglec-9 mutant M5 (human, UniProt Q9Y336 18-463).
T4 construct: Expressed on HEK293T cells; also called Mutant 5
In words: flow cytometry, HEK293T transfectants.

Another assay concerns the target T5, Human Siglec-9 mutant M6 (human, UniProt Q9Y336 18-463).
T5 construct: Expressed on HEK293T cells; also called Mutant 6
In words: flow cytometry, HEK293T transfectants.

Another assay concerns the target T6, Human Siglec-9 mutant M9 (human, UniProt Q9Y336 18-463).
T6 construct: Expressed on HEK293T cells; also called Mutant 9
As to the kind of experiment: flow cytometry, HEK293T transfectants.

The target in assay [1] is T7, Human Siglec-9 mutant M10 (human, UniProt Q9Y336 18-463).
T7 construct: Expressed on HEK293T cells; also called Mutant 10
T7 sequence (Q9Y336 other isoform, or with tags, fused parts or gaps mutant): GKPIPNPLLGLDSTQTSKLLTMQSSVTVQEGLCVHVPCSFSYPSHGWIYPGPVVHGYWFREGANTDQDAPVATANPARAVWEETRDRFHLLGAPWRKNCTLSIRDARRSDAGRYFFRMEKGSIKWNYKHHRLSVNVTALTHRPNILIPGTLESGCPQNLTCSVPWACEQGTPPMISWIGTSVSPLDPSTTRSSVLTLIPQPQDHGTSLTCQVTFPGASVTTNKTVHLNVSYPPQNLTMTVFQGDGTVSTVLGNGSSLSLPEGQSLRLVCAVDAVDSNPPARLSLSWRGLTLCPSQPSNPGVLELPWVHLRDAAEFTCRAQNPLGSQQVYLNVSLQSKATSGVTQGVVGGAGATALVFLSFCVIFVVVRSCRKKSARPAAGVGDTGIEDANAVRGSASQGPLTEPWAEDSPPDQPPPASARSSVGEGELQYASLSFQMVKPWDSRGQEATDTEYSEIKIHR
In words: flow cytometry, HEK293T transfectants.

The target in assay [2] is T8, Human Siglec-9 mutant M11 (human, UniProt Q9Y336 18-463).
T8 construct: Expressed on HEK293T cells; also called Mutant 11
T8 sequence (Q9Y336 other isoform, or with tags, fused parts or gaps mutant): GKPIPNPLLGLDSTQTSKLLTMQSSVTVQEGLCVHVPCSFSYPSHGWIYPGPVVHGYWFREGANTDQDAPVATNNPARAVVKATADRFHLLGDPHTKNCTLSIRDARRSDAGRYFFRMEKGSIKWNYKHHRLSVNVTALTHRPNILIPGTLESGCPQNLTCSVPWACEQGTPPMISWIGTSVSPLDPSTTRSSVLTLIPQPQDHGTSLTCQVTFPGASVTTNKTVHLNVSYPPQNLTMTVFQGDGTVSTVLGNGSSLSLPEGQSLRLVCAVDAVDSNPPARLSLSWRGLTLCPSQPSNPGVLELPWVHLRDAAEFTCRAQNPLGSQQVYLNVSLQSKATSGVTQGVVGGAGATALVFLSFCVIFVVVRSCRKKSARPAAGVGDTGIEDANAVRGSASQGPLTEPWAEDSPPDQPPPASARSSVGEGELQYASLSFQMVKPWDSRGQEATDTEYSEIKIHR
In words: flow cytometry, HEK293T transfectants.

Assay [3] has as its target T9, Human Siglec-9 mutant M14 (human, UniProt Q9Y336 18-463).
T9 construct: Expressed on HEK293T cells; also called Mutant 14
In words: flow cytometry, HEK293T transfectants.

The target of assay [4] is T10, Human Siglec-9 mutant M15 (human, UniProt Q9Y336 18-463).
T10 construct: Expressed on HEK293T cells; also called Mutant 15
T10 sequence (Q9Y336 other isoform, or with tags, fused parts or gaps mutant): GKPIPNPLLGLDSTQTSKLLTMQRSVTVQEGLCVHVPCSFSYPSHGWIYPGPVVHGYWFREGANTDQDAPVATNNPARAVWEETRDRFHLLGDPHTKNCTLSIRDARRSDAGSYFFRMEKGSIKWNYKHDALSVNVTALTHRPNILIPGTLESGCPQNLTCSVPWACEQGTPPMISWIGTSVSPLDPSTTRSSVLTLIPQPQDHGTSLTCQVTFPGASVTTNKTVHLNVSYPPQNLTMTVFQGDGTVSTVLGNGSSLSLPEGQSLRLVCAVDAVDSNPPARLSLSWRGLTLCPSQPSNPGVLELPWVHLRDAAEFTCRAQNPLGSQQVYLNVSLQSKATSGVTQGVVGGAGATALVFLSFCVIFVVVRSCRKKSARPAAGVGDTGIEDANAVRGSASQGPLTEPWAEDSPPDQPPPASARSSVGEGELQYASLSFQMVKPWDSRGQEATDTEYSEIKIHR
In words: flow cytometry, HEK293T transfectants.

Assay [5] deals with T11, Human Siglec-9 (human, UniProt Q9Y336 18-463).
T11 construct: On transfected CHO cells; also on YTS and KHYG-1 transfectants, primary NK cells and moDC; also called huSiglec-9; CD329
As to the kind of experiment: flow cytometry titration on moDC vs neuraminidase-treated moDC. The method, then:
(§1) moDC were desialylated for 2 hours with 25 mU neuraminidase (Roche Diagnostics).
(§2) Binding on moDCs and neuraminidase treated moDCs was tested in a titration experiment by flow cytometry. Cells were incubated 1h in Staining Buffer (SB) with primary antibodies at 10 ug/ml and a series of dilution of 1:10. They were washed two times with SB, then incubated 30 min with a Goat F(ab′)² Anti-Human IgG (Fc) PE (Jackson ImmunoResearch), and washed twice with SB.

Assay [6] deals with T11, Human Siglec-9. In words: flow cytometry titration on neuraminidase-treated moDCs, goat F(ab')2 anti-human IgG (Fc) PE; table under the right panel. The method, then:
as §1, §2

In assay [7] the target is T11, Human Siglec-9. In words: flow cytometry titration on untreated monocyte-derived dendritic cells (moDCs), goat F(ab')2 anti-human IgG (Fc) PE; table under the left panel. The protocol:
as §2

Assay [8] concerns the target T12, Human Siglec-9 Ig-like C2-type domain 1 (human).
T12 construct: expressed on HEK293T cells
T12 chain: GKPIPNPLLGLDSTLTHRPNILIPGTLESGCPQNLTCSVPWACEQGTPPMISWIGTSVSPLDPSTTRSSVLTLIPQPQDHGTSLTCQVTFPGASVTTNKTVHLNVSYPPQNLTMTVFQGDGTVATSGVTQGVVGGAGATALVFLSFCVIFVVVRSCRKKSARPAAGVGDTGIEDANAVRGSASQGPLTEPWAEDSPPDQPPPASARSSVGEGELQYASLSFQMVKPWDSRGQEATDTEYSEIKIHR
In words: flow cytometry, HEK293T cells expressing single Siglec-9 domains.

The next assay has as its target T13, Siglec-7 Fc protein (human).
T13 construct: Produced in CHO cells; also called human Siglec-7 Fc
As to the kind of experiment: ELISA, blocking: Siglec-7 Fc captured on protein A, mAb dilution series, then biotinylated polymer Sia2, streptavidin-peroxidase (top panel); partial inhibition. The method, then:
(§3) Blocking of the interaction between Siglec-7 and -9 and sialylated ligands by anti Siglec-7/9 antibodies was tested on ELISA assays. Siglec proteins were Siglec-7 human Fc and Siglec-9 Human Fc recombinant proteins, and ligands were biotinylated polymers with sialylated trisaccharides (Neu5Aca2-3Galb1-4GcNAcb-PAA-biotin Glycotech #01-077 referred to as “Sia1” and 6′-Sialyllactose-PAA-biotin Glycotech #01-039 (referred to as “Sia2”). Briefly, Protein A was coated on ELISA plates over night at 4° C. After 3 washes and saturation, Siglec-7 Fc and Siglec-9 Fc were added at 0.8 μg/well at RT for 1H30. After 3 washes, mAbs were added at 20 ug/ml and a series of dilution of 1:5. After 3 washes, biotinylated sialylated polymers were added for 3 hours at room temperature. After 3 washes, Streptavidin-Peroxidase (Beckman) was added at 1:1000. […] The absorbance was read at 450 nm.

In a further assay the target is T14, Siglec-9 Fc protein (human).
T14 construct: Produced in CHO cells; also called human Siglec-9 Fc
T14 sequence (chain, as listed by the source limits assumed): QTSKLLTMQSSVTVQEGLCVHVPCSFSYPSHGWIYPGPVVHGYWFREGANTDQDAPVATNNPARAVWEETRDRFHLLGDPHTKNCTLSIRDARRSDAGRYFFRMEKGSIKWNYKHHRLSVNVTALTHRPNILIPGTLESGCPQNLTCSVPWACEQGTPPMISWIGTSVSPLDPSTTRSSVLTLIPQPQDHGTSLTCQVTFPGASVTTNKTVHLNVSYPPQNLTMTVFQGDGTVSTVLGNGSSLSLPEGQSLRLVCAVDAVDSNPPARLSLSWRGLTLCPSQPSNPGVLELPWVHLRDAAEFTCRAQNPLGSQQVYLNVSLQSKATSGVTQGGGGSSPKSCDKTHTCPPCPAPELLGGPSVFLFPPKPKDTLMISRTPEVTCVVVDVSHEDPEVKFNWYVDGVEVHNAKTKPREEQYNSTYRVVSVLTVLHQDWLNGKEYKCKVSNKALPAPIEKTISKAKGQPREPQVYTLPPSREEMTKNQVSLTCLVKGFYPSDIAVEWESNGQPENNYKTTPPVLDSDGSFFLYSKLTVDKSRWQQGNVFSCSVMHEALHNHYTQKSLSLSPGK
In words: ELISA, blocking: Siglec-9 Fc captured on protein A, mAb dilution series, then biotinylated polymer Sia1 (Neu5Aca2-3Galb1-4GlcNAcb-PAA-biotin), streptavidin-peroxidase (top panel). The protocol: as §3
(In an ELISA, binding on a coated surface is turned into a signal by an enzyme label.)

A further assay deals with T15, Human Siglec-9 mutant M8 (human, UniProt Q9Y336 18-463).
T15 construct: Expressed on HEK293T cells; also called Mutant 8
T15 sequence (Q9Y336 other isoform, or with tags, fused parts or gaps mutant): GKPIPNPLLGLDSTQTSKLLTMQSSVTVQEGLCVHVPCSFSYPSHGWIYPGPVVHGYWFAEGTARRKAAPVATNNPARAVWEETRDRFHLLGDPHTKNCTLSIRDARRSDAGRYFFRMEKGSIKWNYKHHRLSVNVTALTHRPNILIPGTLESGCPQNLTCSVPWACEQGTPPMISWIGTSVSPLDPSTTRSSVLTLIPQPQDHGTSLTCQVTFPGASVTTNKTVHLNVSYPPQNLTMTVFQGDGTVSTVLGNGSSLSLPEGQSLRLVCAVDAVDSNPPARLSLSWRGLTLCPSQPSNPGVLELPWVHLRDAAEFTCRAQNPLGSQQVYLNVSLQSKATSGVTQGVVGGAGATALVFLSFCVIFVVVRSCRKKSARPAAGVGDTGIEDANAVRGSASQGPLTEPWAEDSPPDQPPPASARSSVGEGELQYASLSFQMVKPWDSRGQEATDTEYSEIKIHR
In words: flow cytometry, HEK293T transfectants.

T1 sequence (Q9Y286 19-467): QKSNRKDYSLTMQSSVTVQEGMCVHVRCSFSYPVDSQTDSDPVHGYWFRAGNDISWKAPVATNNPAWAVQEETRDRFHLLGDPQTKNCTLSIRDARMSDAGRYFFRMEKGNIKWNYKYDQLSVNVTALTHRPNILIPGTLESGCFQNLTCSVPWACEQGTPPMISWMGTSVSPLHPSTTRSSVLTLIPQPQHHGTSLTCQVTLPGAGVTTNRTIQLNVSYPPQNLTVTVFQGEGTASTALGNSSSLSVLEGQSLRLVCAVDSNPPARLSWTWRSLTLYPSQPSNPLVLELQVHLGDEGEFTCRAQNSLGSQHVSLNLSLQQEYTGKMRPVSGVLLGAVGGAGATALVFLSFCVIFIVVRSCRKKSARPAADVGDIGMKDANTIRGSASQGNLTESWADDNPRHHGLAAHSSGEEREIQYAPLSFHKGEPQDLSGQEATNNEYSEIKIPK
T9 sequence (Q9Y336 other isoform, or with tags, fused parts or gaps mutant): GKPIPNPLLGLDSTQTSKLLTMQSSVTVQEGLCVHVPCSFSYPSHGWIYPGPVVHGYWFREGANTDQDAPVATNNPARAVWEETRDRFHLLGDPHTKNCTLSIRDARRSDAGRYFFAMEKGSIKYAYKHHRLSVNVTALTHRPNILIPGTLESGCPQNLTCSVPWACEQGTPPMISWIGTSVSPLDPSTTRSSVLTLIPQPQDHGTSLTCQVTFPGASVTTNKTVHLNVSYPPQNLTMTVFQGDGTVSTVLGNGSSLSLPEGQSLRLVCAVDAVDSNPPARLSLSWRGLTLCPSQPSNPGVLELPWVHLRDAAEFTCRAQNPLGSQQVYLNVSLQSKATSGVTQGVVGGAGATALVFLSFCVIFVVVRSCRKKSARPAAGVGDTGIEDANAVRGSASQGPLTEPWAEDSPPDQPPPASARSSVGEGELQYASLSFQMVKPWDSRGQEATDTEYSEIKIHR
T5 sequence (Q9Y336 other isoform, or with tags, fused parts or gaps mutant): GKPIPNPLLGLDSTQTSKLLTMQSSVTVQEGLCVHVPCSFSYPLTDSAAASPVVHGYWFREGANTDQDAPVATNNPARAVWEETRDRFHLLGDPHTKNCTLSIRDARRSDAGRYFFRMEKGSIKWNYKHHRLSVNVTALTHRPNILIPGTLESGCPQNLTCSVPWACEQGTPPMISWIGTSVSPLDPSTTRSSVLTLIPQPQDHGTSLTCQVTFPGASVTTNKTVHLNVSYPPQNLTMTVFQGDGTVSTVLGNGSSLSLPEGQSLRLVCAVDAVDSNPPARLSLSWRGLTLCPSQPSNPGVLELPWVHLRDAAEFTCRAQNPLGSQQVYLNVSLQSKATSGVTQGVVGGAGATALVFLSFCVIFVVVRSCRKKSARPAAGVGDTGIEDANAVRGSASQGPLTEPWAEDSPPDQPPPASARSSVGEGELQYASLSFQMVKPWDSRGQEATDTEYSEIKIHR
T13 sequence (chain, as listed by the source limits assumed): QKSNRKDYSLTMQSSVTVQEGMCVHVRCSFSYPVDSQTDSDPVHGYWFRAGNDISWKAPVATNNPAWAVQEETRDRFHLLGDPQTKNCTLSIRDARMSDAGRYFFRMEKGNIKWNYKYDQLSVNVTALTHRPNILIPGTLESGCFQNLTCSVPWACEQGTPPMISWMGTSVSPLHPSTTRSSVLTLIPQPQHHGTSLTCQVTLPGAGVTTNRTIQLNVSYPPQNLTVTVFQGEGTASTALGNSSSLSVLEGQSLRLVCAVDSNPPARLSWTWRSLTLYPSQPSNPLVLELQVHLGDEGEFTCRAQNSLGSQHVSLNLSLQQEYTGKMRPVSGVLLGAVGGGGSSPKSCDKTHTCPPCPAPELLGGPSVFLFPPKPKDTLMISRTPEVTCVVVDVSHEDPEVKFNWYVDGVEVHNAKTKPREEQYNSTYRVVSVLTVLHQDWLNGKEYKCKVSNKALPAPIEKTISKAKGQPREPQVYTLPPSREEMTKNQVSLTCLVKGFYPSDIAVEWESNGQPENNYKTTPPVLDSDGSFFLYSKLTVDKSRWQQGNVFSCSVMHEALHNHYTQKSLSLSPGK

B1: mAbC (antibody, human IgG1, V domains shown)
VH: QIQLVQSGPELKKPGETVKISCKASGYTFTNYEMNWVKEAPGKGLKWMGWINTYTGESTYADDFKGRFAFSLETSASTVYLQINNLKDEDVATYFCVRDDYGRSYGFAYWGQGTLVTVSA
VL: NIVLTQSPASLTVSLGQRANISCRASESVDSYGNSFMHWYQQKPGQPPKLLIYLASKLESGVPARFSGSGSRTDFTLTIDPVETDDAATYYCHQNNEDPPWTFGGGTKLEIK
In the case of B1, the binding result in the assay with Human Siglec-7 is recorded as “no binding”; with Human Siglec-9 mutant M2 it was “binds”; with Human Siglec-9 mutant M3, “binds”; in the assay with Human Siglec-9 mutant M5, “binds”; with Human Siglec-9 mutant M6, “binds”; with Human Siglec-9 mutant M9 it was “binds”. Also, the binding result in assay [1], in assay [2], in assay [3] and in [4] was “binds” each time. The “fold change of EC50 after neuraminidase treatment of moDC” value (“fold change of EC50” for short) with Human Siglec-9 [5] amounted to 10 fold. In addition, the EC50 (in general, the concentration giving half of the maximal effect) was 0.0274 µg/mL with Human Siglec-9 [6] and 0.196 µg/mL with Human Siglec-9 [7].

B2: mAb5 (antibody, human IgG1, V domains shown)
VH: EIQLQQSGPELEKPGASVKISCKASGYSFSDYNMNWVKQSNGKSLEWIGNIDPYYGATSYNQRFKGKATLTVDKSSSTAYMQLKSLTSEDSAVYYCARGDSLFAYWGHGTLVTVSA
VL: DIVMTQSQEFMSTSLGDRVSVTCKASQNVGTNVAWYQQKPGQSPKALLYSASSRYSGVPDRFTGSGSGTDFTLTISNVQSEDLAEYFCQQYITYPYTFGGGTKLEIK
As to B2, the binding result (in assay [8]; with Siglec-9 Fc protein) was “binds” throughout. In addition, the “IC50 (read off the curve)” value with Siglec-7 Fc protein is about 1 µg/mL.

B3: mAb6 (antibody, human IgG1, V domains shown)
VH: B2 VH with H108Q
VL: B2 VL with S76N, V78M
For B3, the binding result (in [8]; in the assay with Siglec-9 Fc protein) was “binds” in each case.

B4: mAbA (antibody, human IgG1, V domains shown)
VH: QVQLQQPGAELVKPGSPVKLSCKASYFTFTSYWMHWVRQRPGQGLEWIGEINPSNGHTNYNEKFESKATLTVDRSSSTAYMQLSSLTSEDSAVFYCANGVESYDFDDALDYWGQGTSVTVSS
VL: DIQMTQTTSSLSASLGDRVTISCRASQDINNYLNWYQQKPDGTIKLLIYYTSRLHSGVPSRFSGSGSGTDYSLTINNLEQEDIATYFCQQGNTLPFTFGGGTKLEIK
For B4, the binding result in the assay with Human Siglec-7 is “no binding”; with Human Siglec-9 mutant M2 it was “binds”; with Human Siglec-9 mutant M3, “binds”; in the assay with Human Siglec-9 mutant M5, “binds”; with Human Siglec-9 mutant M6, “binds”; with Human Siglec-9 mutant M8 it was “binds”. In addition, the binding result (with Human Siglec-9 mutant M9; in assay [1]; in [2]; in [4]) was “binds” throughout. Besides, the “fold change of EC50” value with Human Siglec-9 [5] is 10 fold. Besides, the figures for the EC50 in the assay with Human Siglec-9 [6] and with Human Siglec-9 [7] were 0.0282 µg/mL and 0.232 µg/mL, respectively.

B5: mAb4 (antibody, human IgG1, V domains shown)
VH: DVQLVESGGDLVKPGGSLKLSCAASGFAFSSYDMSWVRQSPEKRLEWIAHIGSGGGNIYYPDTVKGRFTISRDNAKNTLYLQMRSLKSEDTAMYYCARLIFTTGFYGMDYWGQGTSVTVSS
VL: B4 VL with N30S, N31S, N76S, E79D, E81D, T93A, F96W
With B5, the binding result (in assay [8]; with Siglec-9 Fc protein) was “binds” each time. Moreover, the “IC50 (read off the curve)” value with Siglec-7 Fc protein is about 2 µg/mL.

B6: mAbD (antibody, human IgG1, V domains shown)
VH: QIQLVQSGPELKKPGETVKISCKASGYTFTDYSMHWVKQAPGKGLKWMGWIITETGEPTYADDFRGRFAFSLETSANTAYLQINNLKNEDTATYFCARDFDGYWGQGTTLTVSS
VL: DILMTQSPASLSASVGETVTITCRASENIYSYLAWYQQKRGKSPQFLVYNAKTLTEGVPSRFRGSGSGTQFSLKINSLQPEDFGTYYCQHHYGFPWTFGGGTKLEIK
Consider B6, for which the binding result in the assay with Human Siglec-7 is on record as “no binding”; in the assay with Human Siglec-9 mutant M2, “binds”; with Human Siglec-9 mutant M3, “binds”; in the assay with Human Siglec-9 mutant M5, “binds”; in the assay with Human Siglec-9 mutant M8 it was “binds”; with Human Siglec-9 mutant M9, “binds”. Further, the binding result in assay [1], in assay [2], in [3] and in [4] was “binds” throughout. Besides, the “fold change of EC50” value with Human Siglec-9 [5] is 10 fold. Also, the EC50 amounted to 0.0925 µg/mL in the assay with Human Siglec-9 [6] and 2.47 µg/mL with Human Siglec-9 [7].
